From US8470772B2, “Leptin agonist and methods of use” (Temple University—Of The Commonwealth System of Higher …, priority 2008, dated 2013)
Non-standard residues stand in square brackets, D forms with d. No end group written: not given here. *: point of attachment. βGlc = OC[C@H]1O[C@@H](*)[C@H](O)[C@@H](O)[C@@H]1O; Tyr(3,5-I2) = N[C@@H](Cc1cc(I)c(O)c(I)c1)C(=O)O; Dap = NC[C@H](N)C(=O)O

Biological target: T1, ObR extracellular domain (Homo sapiens, UniProt P48357)
T1 construct: human IgG Fc-conjugated ObR extracellular domain (R&D Systems); purchased R&D Systems
T1 sequence (P48357 22-839 limits assumed): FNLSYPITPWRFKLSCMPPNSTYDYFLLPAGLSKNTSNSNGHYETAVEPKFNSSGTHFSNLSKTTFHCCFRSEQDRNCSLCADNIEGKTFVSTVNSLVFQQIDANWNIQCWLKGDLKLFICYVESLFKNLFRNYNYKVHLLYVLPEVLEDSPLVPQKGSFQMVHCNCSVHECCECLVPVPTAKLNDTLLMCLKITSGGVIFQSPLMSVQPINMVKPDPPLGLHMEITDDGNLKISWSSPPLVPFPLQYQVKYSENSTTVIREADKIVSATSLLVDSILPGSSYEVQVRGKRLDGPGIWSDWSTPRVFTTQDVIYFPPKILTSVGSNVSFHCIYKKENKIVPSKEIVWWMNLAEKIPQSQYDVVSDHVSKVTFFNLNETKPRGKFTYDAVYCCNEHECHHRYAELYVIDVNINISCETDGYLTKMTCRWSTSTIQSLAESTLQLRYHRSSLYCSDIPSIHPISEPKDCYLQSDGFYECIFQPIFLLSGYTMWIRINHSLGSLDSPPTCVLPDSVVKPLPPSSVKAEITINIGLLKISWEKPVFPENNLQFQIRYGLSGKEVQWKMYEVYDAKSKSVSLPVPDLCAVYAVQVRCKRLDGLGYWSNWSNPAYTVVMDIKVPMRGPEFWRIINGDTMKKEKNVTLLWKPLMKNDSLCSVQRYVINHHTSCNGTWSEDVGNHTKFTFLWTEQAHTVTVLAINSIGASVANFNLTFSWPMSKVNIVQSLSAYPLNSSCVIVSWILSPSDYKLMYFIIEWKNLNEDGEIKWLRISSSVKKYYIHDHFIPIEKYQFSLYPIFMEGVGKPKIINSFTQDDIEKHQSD
Test: Dot-blot and ELISA-type solid-phase binding assay
Details: dot-blot, Western-blot or ELISA; 10 and 20 μg peptide load in ELISA
Description: For dot-blot and ELISA assays, the leptin fragments were dissolved in electroblot transfer buffer (25 mM Tris and […] buffer containing 20% methanol) and were applied to either a nitrocellulose membrane or dried upon ELISA plates (Otvos, L., Jr., and Szendrei, G. I. (1996) Enzyme-linked immunosorbent assay of peptides. In: Neuropeptide Protocols (G. B. Irvine and C. H. Williams, eds.). Humana Press, Totowa, N.J., pp. 269-275). The solid surfaces were blocked with 5% BSA in a PBS-0.5% Tween 20 buffer (PBST) for 3 hours at room temperature and were subsequently incubated with 10 μg/mL solution of human IgG Fc-conjugated ObR extracellular domain (R&D Systems) dissolved in Tris-buffered saline-0.1% Tween 20 buffer (TBST) containing 1% bovine serum albumin (BSA) for 1 hour. A monoclonal goat antibody (Santa Cruz Biotechnology), specific for the N-terminus of human ObR, was added to the assay mixture, followed by addition of a horseradish peroxidase(HRP)-conjugated anti-goat IgG donkey antibody for the dot-blot assay, and HRP-conjugated anti-goat Fc mouse antibody for ELISA assay (used at a 1:15,000 dilution in PBST and 1% BSA). Between reagents, the solid surfaces were washed extensively with PBST. After washing with PBST, the membrane was treated with a chemiluminescence luminol oxidizer (NEN) for 1 min. The resultant chemiluminescence was exposed to a X-Omat blue XB-1 film (Kodak) for 10 seconds, and the exposed film was developed. The ELISA was developed using an HRP ELISA kit including tetramethylbenzidine as a substrate and sulfuric acid as a stop solution. Optical absorbance values were read at 490 nm using a microplate reader.

Q: With “Tyr(I2)-Serβ(Glc)-Thr-Glu-Va1-Va1-Ala-Leu-Ser-Arg-Leu-Dap(Ac) ([Tyr(3,5-I2)]S(βGlc)TEVVALSRL[Dap](Ac)-NH2) [E1Free]” as the substance, how does the “binding to the extracellular domain of ObR” value read?
A: bound
